Measured values: patent US20220119446A1, “BIOMARKERS AND TREATMENT OF NEURONAL INJURY AND NEURODEGENERATION” (Board of Supervisons of Louisiana State University and …, priority 2018, published 2022)

System: β-catenin
Experiment: TOP Flash/FOP flash luciferase reporter in hpRPE cells
Assay type: cell-based, human
Settings: hpRPE cells undergoing UOS+/−NPD1
Text: We tested whether or not Wnt5a activates […] using TOP Flash/FOP flash reporter system in hpRPE cells undergoing UOS+/−NPD1 (FIG. 1g).
Except TOP/FOP flash, the Luciferase activity can be standardized using a construct expressing GFP constitutively under CMV virus promoter. To assess luciferase activity, cell lysates can be obtained using Passive Lysis Buffer (Promega, Madison, Wis.) and mixed with a luciferase assay reagent (Promegam Madison, Wis.). Chemiluminescence produced by luciferase and fluorescence from GFP can be detected using Appliscan 2.3. Data can be analyzed using SkanIt 2.3 (Thermo Fisher Scientific, Waltham, Mass.).
Except TOP/FOP flash, the Luciferase activity was standardized using a construct expressing GFP constitutively under CMV virus promoter. To assess luciferase activity, cell lysates were obtained using Passive Lysis Buffer (Promega) and mixed with a luciferase assay reagent (Promega). Chemiluminescence produced by luciferase and fluorescence from GFP was detected using Appliscan 2.3. Data were analyzed using SkanIt 2.3 (Thermo Fisher Scientific).

B1: Wnt3a: recombinant protein, R&D systems 5036-WN; canonical Wnt ligand (protein, UniProt P56704 19-352, looked up)
Protein Wnt-3a: SYPIWWSLAVGPQYSSLGSQPILCASIPGLVPKQLRFCRNYVEIMPSVAEGIKIGIQECQHQFRGRRWNCTTVHDSLAIFGPVLDKATRESAFVHAIASAGVAFAVTRSCAEGTAAICGCSSRHQGSPGKGWKWGGCSEDIEFGGMVSREFADARENRPDARSAMNRHNNEAGRQAIASHMHLKCKCHGLSGSCEVKTCWWSQPDFRAIGDFLKDKYDSASEMVVEKHRESRGWVETLRPRYTYFKVPTERDLVYYEASPNFCEPNPETGSFGTRDRTCNVSSHGIDGCDLLCCGRGHNARAERRREKCRCVFHWCCYVSCQECTRVYDVHTCK
β-catenin activity (luciferase): rose almost twice
